From US10081665B2, “Peptides and combination of peptides for use in immunotherapy against various tumors” (immatics biotechnologies GmbH, priority 2015, dated 2018)

Biological target: HLA-A*02:01 (Homo sapiens, UniProt P04439, D140Y/D185E/D98H/E176V/E277Q/G131W/G231S/I119V/I121R/I166T/I218V/L300P/L318F/N151K/N90K/P208A/P217A/Q86G/Q94H/R138H/R169H/T345S)
Assay: MHC binding assay (UV-ligand exchange, beta2m ELISA)
Conditions: binding to HLA-A*02:01, β2m ELISA
Text: Candidate peptides for T cell based therapies according to the present invention were further tested for their MHC binding capacity (affinity). The individual peptide-MHC complexes were produced by UV-ligand exchange, where a UV-sensitive peptide is cleaved upon UV-irradiation, and exchanged with the peptide of interest as analyzed. Only peptide candidates that can effectively bind and stabilize the peptide-receptive MHC molecules prevent dissociation of the MHC complexes. To determine the yield of the exchange reaction, an ELISA was performed based on the detection of the light chain (β2m) of stabilized MHC complexes. The assay was performed as generally described in Rodenko et al. (Rodenko et al., 2006).
96 well MAXISorp plates (NUNC) were coated over night with 2 ug/ml streptavidin in PBS at room temperature, washed 4× and blocked for 1 h at 37° C. in 2% BSA containing blocking buffer. Refolded HLA-A*02:01/MLA-001 monomers served as standards, covering the range of 15-500 ng/ml. Peptide-MHC monomers of the UV-exchange reaction were diluted 100 fold in blocking buffer. Samples were incubated for 1 h at 37° C., washed four times, incubated with 2 ug/ml HRP conjugated anti-82m for 1 h at 37° C., washed again and detected with TMB solution that is stopped with […]. Absorption was measured at 450 nm. Candidate peptides that show a high exchange yield (preferably higher than 50%, most preferred higher than 75%) are generally preferred for a generation and production of antibodies or fragments thereof, and/or T cell receptors or fragments thereof, as they show sufficient avidity to the MHC molecules and prevent dissociation of the MHC complexes.

## 281 (LLLESDPKVYSL; listed as Homo sapiens) [compound 281]
  Peptide exchange (MHC class I binding score, peptide exchange yield): ++ (≥20% = ++)

## 179 (TLGEIIKGV; listed as Homo sapiens) [compound 179]
  Peptide exchange (MHC class I binding score, peptide exchange yield): +++ (≥50 = +++)

## 20 (ALVEKGEFAL; listed as Homo sapiens) [compound 20]
  Peptide exchange (MHC class I binding score, peptide exchange yield): ++ (≥20% = ++)

## 141 (NIDINNNEL; listed as Homo sapiens) [compound 141]
  Peptide exchange (MHC class I binding score, peptide exchange yield): ++ (≥20% = ++)

## 210 (GLAGDNIYL; listed as Homo sapiens) [compound 210]
  Peptide exchange (MHC class I binding score, peptide exchange yield): +++ (≥50 = +++)

## 216 (ALSTVTPRI; listed as Homo sapiens) [compound 216]
  Peptide exchange (MHC class I binding score, peptide exchange yield): ++ (≥20% = ++)

## 70 (GLTEKTVLV; listed as Homo sapiens) [compound 70]
  Peptide exchange (MHC class I binding score, peptide exchange yield): ++ (≥20% = ++)

## 106 (VLLGSVVIFA; listed as Homo sapiens) [compound 106]
  Peptide exchange (MHC class I binding score, peptide exchange yield): ++ (≥20% = ++)

## 258 (QLVQRVASV; listed as Homo sapiens) [compound 258]
  Peptide exchange (MHC class I binding score, peptide exchange yield): ++ (≥20% = ++)

## 181 (LLWAPTAQA; listed as Homo sapiens) [compound 181]
  Peptide exchange (MHC class I binding score, peptide exchange yield): +++ (≥50 = +++)

## 59 (ALADGIKSFLL; listed as Homo sapiens) [compound 59]
  Peptide exchange (MHC class I binding score, peptide exchange yield): +++ (≥50 = +++)

## 204 (SEWGSPHAAVP; listed as Homo sapiens) [compound 204]
  Peptide exchange (MHC class I binding score, peptide exchange yield): +++ (≥50 = +++)

## 175 (SLLDLVQSL; listed as Homo sapiens) [compound 175]
  Peptide exchange (MHC class I binding score, peptide exchange yield): +++ (≥50 = +++)

## 113 (FLFLKEVKV; listed as Homo sapiens) [compound 113]
  Peptide exchange (MHC class I binding score, peptide exchange yield): ++ (≥20% = ++)

## 64 (SLYAGSNNQV; listed as Homo sapiens) [compound 64]
  Peptide exchange (MHC class I binding score, peptide exchange yield): ++ (≥20% = ++)

## 123 (QTAPEEAFIKL; listed as Homo sapiens) [compound 123]
  Peptide exchange (MHC class I binding score, peptide exchange yield): + (≥10% = +)

## 220 (ALSELERVL; listed as Homo sapiens) [compound 220]
  Peptide exchange (MHC class I binding score, peptide exchange yield): +++ (≥50 = +++)

## 99 (TLFGIQLTEA; listed as Homo sapiens) [compound 99]
  Peptide exchange (MHC class I binding score, peptide exchange yield): +++ (≥50 = +++)

## 125 (AALEVLAEV; listed as Homo sapiens) [compound 125]
  Peptide exchange (MHC class I binding score, peptide exchange yield): +++ (≥50 = +++)

## 192 (TLLPSSGLVTL; listed as Homo sapiens) [compound 192]
  Peptide exchange (MHC class I binding score, peptide exchange yield): ++ (≥20% = ++)

## 151 (DISKRIQSL; listed as Homo sapiens) [compound 151]
  Peptide exchange (MHC class I binding score, peptide exchange yield): ++ (≥20% = ++)

## 138 (GIINKLVTV; listed as Homo sapiens) [compound 138]
  Peptide exchange (MHC class I binding score, peptide exchange yield): ++ (≥20% = ++)

## 198 (ILTNKVVSV; listed as Homo sapiens) [compound 198]
  Peptide exchange (MHC class I binding score, peptide exchange yield): ++ (≥20% = ++)

## 67 (FLIENLLAA; listed as Homo sapiens) [compound 67]
  Peptide exchange (MHC class I binding score, peptide exchange yield): +++ (≥50 = +++)

## 30 (IITEVITRL; listed as Homo sapiens) [compound 30]
  Peptide exchange (MHC class I binding score, peptide exchange yield): +++ (≥50 = +++)

## 226 (SLAGNLQEL; listed as Homo sapiens) [compound 226]
  Peptide exchange (MHC class I binding score, peptide exchange yield): +++ (≥50 = +++)

## 129 (KMASKVTQV; listed as Homo sapiens) [compound 129]
  Peptide exchange (MHC class I binding score, peptide exchange yield): ++ (≥20% = ++)

## 111 (AQLEGKLVSI; listed as Homo sapiens) [compound 111]
  Peptide exchange (MHC class I binding score, peptide exchange yield): +++ (≥50 = +++)

## 284 (KLMDPGSLPPL; listed as Homo sapiens) [compound 284]
  Peptide exchange (MHC class I binding score, peptide exchange yield): ++ (≥20% = ++)

## 68 (QLMNLIRSV; listed as Homo sapiens) [compound 68]
  Peptide exchange (MHC class I binding score, peptide exchange yield): +++ (≥50 = +++)

## 133 (FLDGRPLTL; listed as Homo sapiens) [compound 133]
  Peptide exchange (MHC class I binding score, peptide exchange yield): ++ (≥20% = ++)

## 187 (SILKEDPFL; listed as Homo sapiens) [compound 187]
  Peptide exchange (MHC class I binding score, peptide exchange yield): ++ (≥20% = ++)

## 231 (LLDDIFIRL; listed as Homo sapiens) [compound 231]
  Peptide exchange (MHC class I binding score, peptide exchange yield): +++ (≥50 = +++)

## 170 (FIAAVVEKV; listed as Homo sapiens) [compound 170]
  Peptide exchange (MHC class I binding score, peptide exchange yield): ++ (≥20% = ++)

## 42 (KQMSISTGL; listed as Homo sapiens) [compound 42]
  Peptide exchange (MHC class I binding score, peptide exchange yield): ++ (≥20% = ++)

## 31 (GLLETTGLLAT; listed as Homo sapiens) [compound 31]
  Peptide exchange (MHC class I binding score, peptide exchange yield): +++ (≥50 = +++)

## 36 (TVLQELINV; listed as Homo sapiens) [compound 36]
  Peptide exchange (MHC class I binding score, peptide exchange yield): +++ (≥50 = +++)

## 206 (GLDAFRIFL; listed as Homo sapiens) [compound 206]
  Peptide exchange (MHC class I binding score, peptide exchange yield): ++++ (≥75% = ++++)

## 224 (LLFDWSGTGRADA; listed as Homo sapiens) [compound 224]
  Peptide exchange (MHC class I binding score, peptide exchange yield): +++ (≥50 = +++)

## 185 (TLYQGLPAEV; listed as Homo sapiens) [compound 185]
  Peptide exchange (MHC class I binding score, peptide exchange yield): ++ (≥20% = ++)

## 71 (HMSGKLTNV; listed as Homo sapiens) [compound 71]
  Peptide exchange (MHC class I binding score, peptide exchange yield): ++ (≥20% = ++)

## 234 (VLLNEILEQV; listed as Homo sapiens) [compound 234]
  Peptide exchange (MHC class I binding score, peptide exchange yield): ++++ (≥75% = ++++)

## 112 (ILAQDVAQL; listed as Homo sapiens) [compound 112]
  Peptide exchange (MHC class I binding score, peptide exchange yield): +++ (≥50 = +++)

## 222 (LLTGVFAQL; listed as Homo sapiens) [compound 222]
  Peptide exchange (MHC class I binding score, peptide exchange yield): ++ (≥20% = ++)

## 238 (HLQEKLQSL; listed as Homo sapiens) [compound 238]
  Peptide exchange (MHC class I binding score, peptide exchange yield): ++ (≥20% = ++)

## 225 (FLPQPVPLSV; listed as Homo sapiens) [compound 225]
  Peptide exchange (MHC class I binding score, peptide exchange yield): +++ (≥50 = +++)

## 139 (IILENIQSL; listed as Homo sapiens) [compound 139]
  Peptide exchange (MHC class I binding score, peptide exchange yield): +++ (≥50 = +++)

## 163 (GLEERLYTA; listed as Homo sapiens) [compound 163]
  Peptide exchange (MHC class I binding score, peptide exchange yield): ++ (≥20% = ++)

## 10 (QLIEKNWLL; listed as Homo sapiens) [compound 10]
  Peptide exchange (MHC class I binding score, peptide exchange yield): +++ (≥50 = +++)

## 6 (FLNAIETAL; listed as Homo sapiens) [compound 6]
  Peptide exchange (MHC class I binding score, peptide exchange yield): ++++ (≥75% = ++++)

## 37 (QIVELIEKI; listed as Homo sapiens) [compound 37]
  Peptide exchange (MHC class I binding score, peptide exchange yield): ++ (≥20% = ++)

## 149 (NMADGQLHQV; listed as Homo sapiens) [compound 149]
  Peptide exchange (MHC class I binding score, peptide exchange yield): ++ (≥20% = ++)

## 142 (LLDAAHASI; listed as Homo sapiens) [compound 142]
  Peptide exchange (MHC class I binding score, peptide exchange yield): ++ (≥20% = ++)

## 5 (GLVDIMVHL; listed as Homo sapiens) [compound 5]
  Peptide exchange (MHC class I binding score, peptide exchange yield): +++ (≥50 = +++)

## 252 (SLMEKNQSL; listed as Homo sapiens) [compound 252]
  Peptide exchange (MHC class I binding score, peptide exchange yield): ++ (≥20% = ++)

## 265 (FLLDKPQDLSI; listed as Homo sapiens) [compound 265]
  Peptide exchange (MHC class I binding score, peptide exchange yield): +++ (≥50 = +++)

## 109 (ILGSFELQL; listed as Homo sapiens) [compound 109]
  Peptide exchange (MHC class I binding score, peptide exchange yield): +++ (≥50 = +++)

## 126 (QLREAFEQL; listed as Homo sapiens) [compound 126]
  Peptide exchange (MHC class I binding score, peptide exchange yield): +++ (≥50 = +++)

## 19 (KVFELDLVTL; listed as Homo sapiens) [compound 19]
  Peptide exchange (MHC class I binding score, peptide exchange yield): ++ (≥20% = ++)

## 167 (LVVDEGSLVSV; listed as Homo sapiens) [compound 167]
  Peptide exchange (MHC class I binding score, peptide exchange yield): +++ (≥50 = +++)

## 60 (YLFSQGLQGL; listed as Homo sapiens) [compound 60]
  Peptide exchange (MHC class I binding score, peptide exchange yield): +++ (≥50 = +++)

## 213 (ILAVDGVLSV; listed as Homo sapiens) [compound 213]
  Peptide exchange (MHC class I binding score, peptide exchange yield): +++ (≥50 = +++)
